# Results from the supplement of paper PMC9732359.
# ± gives the uncertainty stated by the source.
# Assay: protein stability index of a GFP-peptide fusion (yeast GPS) (PSI 1-4); higher = more stable; sorted into four equal gates, so the index is relative within each strain
# How it was run: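 Mid-log yeast cultures in leucine-free medium, carrying a pooled plasmid library, were sorted into four equal gates by their GFP/Cherry fluorescence ratio. Each plasmid expressed Cherry along with GFP fused upstream of a tiled 17-residue yeast protein peptide. Plasmids recovered from each gate were PCR-amplified and Illumina-sequenced, with reads assigned to strains by barcodes. The protein stability index was obtained by summing each gate's read frequency weighted by its gate number.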
Sequence,protein stability index (doa10∆),protein stability index (pdr5∆),protein stability index (san1∆),protein stability index (ubr1∆)
EIFDVTSNGLKKNPNWL [FAS1],3.54 ± 0.16,3.46 ± 0.11,2.64 ± 0.18,3.37 ± 0.06
NAIQTEVYGINEESTNE [SIR4],–,3.03 ± 0.3,2.9 ± 0.25,–
NSDDILSLHENYPQDEI [POP1],2.94 ± 0.06,3.12 ± 0.073,2.82 ± 0.084,2.92 ± 0.05
CVRVQLIKNGKKVTAFV [RPS23A],2.59 ± 0.085,2.66 ± 0.093,3.16 ± 0.13,3.13 ± 0.088
LNNNNNNNNTTTTTTTT [SWI1],3.06 ± 0.062,3.27 ± 0.062,3.33 ± 0.081,3.22 ± 0.054
PKLKEGALHFVQQSEKL [YIL149C/MLP2],2.58 ± 0.064,2.33 ± 0.082,2.31 ± 0.066,2.88 ± 0.05
PTPVVTISEKEQDILDL [SSN2],2.76 ± 0.1,2.02 ± 0.095,2.61 ± 0.12,2.73 ± 0.099
PKNFGIGQAVQPKRNLS [RPL8A],2.74 ± 0.064,2.74 ± 0.056,2.78 ± 0.043,2.69 ± 0.05
LFNNHLNGILADEMGLG [SNF2],2.83 ± 0.11,2.64 ± 0.1,3.28 ± 0.068,2.59 ± 0.092
NIKNTNEEATPIPSSET [RRP6],2.61 ± 0.049,2.98 ± 0.052,2.44 ± 0.048,2.67 ± 0.056
LAAERKVTSTLLEQDTS [PRE9],2.46 ± 0.066,2.58 ± 0.082,2.65 ± 0.082,2.36 ± 0.089
IVPGTYIQERNPTQRPQ [RPS10A],3.01 ± 0.054,3.08 ± 0.043,3.05 ± 0.037,3.12 ± 0.034
VKGLLNTYKRLVIGIFK [YJL039C/NUP192],2.53 ± 0.061,2.46 ± 0.051,1.5 ± 0.11,2.2 ± 0.04
MSGSFWTSTQRHHWQYT [SSN8],2.07 ± 0.14,2.27 ± 0.15,1.97 ± 0.13,2.23 ± 0.099
FNTEAEQTVSAVTEATS [RGR1],2.67 ± 0.28,3.41 ± 0.15,–,–
LKKVQQQQQAAALANAN [SWI1],1.83 ± 0.063,2.45 ± 0.081,2.1 ± 0.073,1.78 ± 0.064
VSLIKKYKLISRIVEIF [YML103C/NUP188],1.34 ± 0.054,1.94 ± 0.049,1.64 ± 0.067,1.46 ± 0.054
KKLDDKPSLVDVHLLES [RPN6],1.1 ± 0.12,1.29 ± 0.14,–,–
TLVSTDNYFNLQLNEAE [SMX3],2.94 ± 0.069,2.91 ± 0.059,2.82 ± 0.053,2.79 ± 0.048
IQEYQLCDNFNHFSLSY [COR1],2.35 ± 0.049,2.61 ± 0.053,2.44 ± 0.055,2.27 ± 0.057
ELKDLETQVEVEKNEIG [NNF1],3.05 ± 0.19,3.24 ± 0.11,2.97 ± 0.17,3.33 ± 0.13
EMMKMMQDPQMQQMAKQ [SRP54],3.07 ± 0.057,2.76 ± 0.067,2.77 ± 0.039,2.67 ± 0.038
FVEEQNVYVLPKNLLKK [PRP8],2.54 ± 0.056,2.5 ± 0.045,2.54 ± 0.07,2.87 ± 0.059
NISNNLQKALTVKTNDE [RPN8],3.02 ± 0.16,3 ± 0.11,2.82 ± 0.14,2.88 ± 0.067
TLRKELEQIQVQLKDAN [YIL149C/MLP2],2.51 ± 0.1,2.96 ± 0.093,2.67 ± 0.096,2.24 ± 0.051
DLSMVPKMKDEEYDDDD [SNF2],2.9 ± 0.13,3.22 ± 0.14,3.24 ± 0.098,2.99 ± 0.12

Sequence,protein stability index (doa10∆),protein stability index (pdr5∆),protein stability index (san1∆),protein stability index (ubr1∆)
LTSNLSNYSRTMTISHL [YJL039C/NUP192],2.56 ± 0.074,2.32 ± 0.061,1.98 ± 0.084,2.48 ± 0.04
GDYSQATVLSRKILKKT [RPN5],2.68 ± 0.054,2.87 ± 0.067,2.75 ± 0.06,2.95 ± 0.051
MNGNSTNNEQLQQELAT [NUT2],3.2 ± 0.06,3.15 ± 0.075,3.1 ± 0.053,3.07 ± 0.062
NIYDQLRNKLIESNKLA [RRP6],2.34 ± 0.073,2.45 ± 0.084,1.9 ± 0.09,2.22 ± 0.073
SKKETKLQENRTLLTEE [SMC2],–,3.23 ± 0.24,–,3.08 ± 0.14
DYNFKYGIPLEFYNEMH [PRP8],2.98 ± 0.08,3.08 ± 0.091,1.78 ± 0.082,3.15 ± 0.083
KHITVRLTAKRLIEHDP [SRP14],2.35 ± 0.057,2.52 ± 0.044,2.51 ± 0.064,2.65 ± 0.035
KNTEEGKALVHHYEECA [QCR6],3.37 ± 0.067,3.29 ± 0.072,3.5 ± 0.051,3.38 ± 0.052
VLEDVYRCFAQLELRQL [RRI2],2.15 ± 0.25,2.61 ± 0.17,2.5 ± 0.12,2.67 ± 0.17
KKLVWPLHLIFAQPVAD [SSN2],1.88 ± 0.075,1.39 ± 0.073,1.26 ± 0.11,1.17 ± 0.062
KSSVPGSAELRNSYPAS [RPN3],2.66 ± 0.089,3.33 ± 0.076,2.73 ± 0.078,3.25 ± 0.095
KNLISRINTLPQVQLPV [ECM29],2.85 ± 0.13,2.86 ± 0.1,2.9 ± 0.16,2.83 ± 0.17
PVKVSGTIKKIEQFAMR [POP5],2.54 ± 0.089,2.65 ± 0.058,2.34 ± 0.082,2.56 ± 0.042
MSQYQSTMKENKDLSEL [YIL149C/MLP2],3 ± 0.16,3.12 ± 0.11,–,2.76 ± 0.092
LAFYQVTPEEDEEEDEE [RPL22A],3.14 ± 0.1,3.45 ± 0.12,3.61 ± 0.06,3.38 ± 0.11
DGSQQNLQQDKTNFQDV [REC8],3.23 ± 0.071,3.38 ± 0.054,3.42 ± 0.068,3.3 ± 0.038
GTGLFGQQTAQPQQSTI [YGR119C/NUP57],2.76 ± 0.063,3.13 ± 0.046,2.85 ± 0.051,3.19 ± 0.058
PYDKKKRVVVPQALRVL [RPL16A],2.32 ± 0.14,–,–,1.35 ± 0.14
DILQITKKPLMVKNVKP [SIR4],2.79 ± 0.063,2.72 ± 0.049,2.55 ± 0.069,2.63 ± 0.062
TNHSAAASTPTTTATPH [PGD1],2.91 ± 0.033,3.026 ± 0.029,2.99 ± 0.027,2.939 ± 0.023
AFGLGAIMSKSSLEELL [ECM29],1.83 ± 0.089,2.07 ± 0.074,1.71 ± 0.12,2.06 ± 0.052
PLPICHANSVVALTGLL [YML031W/NDC1],3.13 ± 0.12,1.73 ± 0.083,2.58 ± 0.099,2.5 ± 0.12
LSNIEAQFLRSVVHPGE [RPO21],2.77 ± 0.1,2.73 ± 0.21,2.45 ± 0.1,2.97 ± 0.14
RQDGSYTYHSTNKDNKA [ARP9],2.67 ± 0.062,2.97 ± 0.067,2.88 ± 0.044,2.64 ± 0.056
NFIVHSPMLKRIKITAN [GRR1],1.48 ± 0.072,1.2 ± 0.075,1.29 ± 0.13,1.19 ± 0.061
PGIMLRQMNLVITLLNN [YCS4],1.2 ± 0.06,1.11 ± 0.042,1.14 ± 0.13,1.19 ± 0.041
